Biological target: CD19 on CD19+ Raji B cells (UniProt P15391)
Experiment: cell-based or functional assay

Sequence of UniProt P15391 (P15391 20-556 limits assumed): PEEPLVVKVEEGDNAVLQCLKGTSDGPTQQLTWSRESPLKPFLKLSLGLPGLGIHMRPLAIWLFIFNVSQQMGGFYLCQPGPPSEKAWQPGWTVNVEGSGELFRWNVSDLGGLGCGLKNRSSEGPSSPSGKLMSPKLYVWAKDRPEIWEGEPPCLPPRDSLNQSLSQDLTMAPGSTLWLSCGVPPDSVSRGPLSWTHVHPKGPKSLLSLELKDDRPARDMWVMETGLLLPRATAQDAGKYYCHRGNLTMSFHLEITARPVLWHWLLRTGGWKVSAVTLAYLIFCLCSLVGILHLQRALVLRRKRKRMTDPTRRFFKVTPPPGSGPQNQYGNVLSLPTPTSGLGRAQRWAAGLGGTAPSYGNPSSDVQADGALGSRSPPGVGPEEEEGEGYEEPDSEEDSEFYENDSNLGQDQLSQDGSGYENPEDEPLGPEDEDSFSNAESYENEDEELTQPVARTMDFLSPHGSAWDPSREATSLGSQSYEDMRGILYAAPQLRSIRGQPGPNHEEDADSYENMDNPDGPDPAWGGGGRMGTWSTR

- GFP fluorescence of transduced T-cells (GFP-RDE1, MinP), 24 h co-culture, flow cytometry: 6.5%
- activated cells in the population (CD25/CD69 staining), 24 h co-culture, GFP-RDE1 construct: 0.9 to 84.8%
- activated cells in the population (CD25/CD69 staining), 24 h co-culture, GFP-RDE2.1 construct: 3.9 to 12.1%
- fold change in IL-12 expression (ELISA), NFAT promoter, 3'-UTR not responsive to CAR stimulation: 50 fold
- fold change in IL-12 expression (ELISA), NFAT promoter, RDE1 (Gold1): 168 fold
- fold change in IL-12 expression (ELISA), minP promoter, RDE1 (Gold1): 6.3 fold
- fold increase in bioluminescence, MinP promoter, RDE1: 4.1 fold
- fold increase in bioluminescence, MinP promoter, RDE2: 1.8 fold
- fold increase in bioluminescence, MinP promoter, RDE3: 1.4 fold
- fold increase in bioluminescence, NFAT promoter, RDE1: 8.5 fold
- fold increase in bioluminescence, NFAT promoter, RDE2: 3.1 fold
- fold increase in bioluminescence, NFAT promoter, RDE3: 1.3 fold
Substance: anti-CD19 CAR (anti-CD19 CAR cassette as described in WO 2012/079000), expressed on transduced CD4+ T-cells
